In the assay the target is low density lipoprotein receptor-related protein (LRP-1) on rat liver cells (rat) (UniProt G3V928). Description: cell-based or functional assay.
Chain of low density lipoprotein receptor-related protein (LRP-1) on rat liver cells (rat) (G3V928 20-4545): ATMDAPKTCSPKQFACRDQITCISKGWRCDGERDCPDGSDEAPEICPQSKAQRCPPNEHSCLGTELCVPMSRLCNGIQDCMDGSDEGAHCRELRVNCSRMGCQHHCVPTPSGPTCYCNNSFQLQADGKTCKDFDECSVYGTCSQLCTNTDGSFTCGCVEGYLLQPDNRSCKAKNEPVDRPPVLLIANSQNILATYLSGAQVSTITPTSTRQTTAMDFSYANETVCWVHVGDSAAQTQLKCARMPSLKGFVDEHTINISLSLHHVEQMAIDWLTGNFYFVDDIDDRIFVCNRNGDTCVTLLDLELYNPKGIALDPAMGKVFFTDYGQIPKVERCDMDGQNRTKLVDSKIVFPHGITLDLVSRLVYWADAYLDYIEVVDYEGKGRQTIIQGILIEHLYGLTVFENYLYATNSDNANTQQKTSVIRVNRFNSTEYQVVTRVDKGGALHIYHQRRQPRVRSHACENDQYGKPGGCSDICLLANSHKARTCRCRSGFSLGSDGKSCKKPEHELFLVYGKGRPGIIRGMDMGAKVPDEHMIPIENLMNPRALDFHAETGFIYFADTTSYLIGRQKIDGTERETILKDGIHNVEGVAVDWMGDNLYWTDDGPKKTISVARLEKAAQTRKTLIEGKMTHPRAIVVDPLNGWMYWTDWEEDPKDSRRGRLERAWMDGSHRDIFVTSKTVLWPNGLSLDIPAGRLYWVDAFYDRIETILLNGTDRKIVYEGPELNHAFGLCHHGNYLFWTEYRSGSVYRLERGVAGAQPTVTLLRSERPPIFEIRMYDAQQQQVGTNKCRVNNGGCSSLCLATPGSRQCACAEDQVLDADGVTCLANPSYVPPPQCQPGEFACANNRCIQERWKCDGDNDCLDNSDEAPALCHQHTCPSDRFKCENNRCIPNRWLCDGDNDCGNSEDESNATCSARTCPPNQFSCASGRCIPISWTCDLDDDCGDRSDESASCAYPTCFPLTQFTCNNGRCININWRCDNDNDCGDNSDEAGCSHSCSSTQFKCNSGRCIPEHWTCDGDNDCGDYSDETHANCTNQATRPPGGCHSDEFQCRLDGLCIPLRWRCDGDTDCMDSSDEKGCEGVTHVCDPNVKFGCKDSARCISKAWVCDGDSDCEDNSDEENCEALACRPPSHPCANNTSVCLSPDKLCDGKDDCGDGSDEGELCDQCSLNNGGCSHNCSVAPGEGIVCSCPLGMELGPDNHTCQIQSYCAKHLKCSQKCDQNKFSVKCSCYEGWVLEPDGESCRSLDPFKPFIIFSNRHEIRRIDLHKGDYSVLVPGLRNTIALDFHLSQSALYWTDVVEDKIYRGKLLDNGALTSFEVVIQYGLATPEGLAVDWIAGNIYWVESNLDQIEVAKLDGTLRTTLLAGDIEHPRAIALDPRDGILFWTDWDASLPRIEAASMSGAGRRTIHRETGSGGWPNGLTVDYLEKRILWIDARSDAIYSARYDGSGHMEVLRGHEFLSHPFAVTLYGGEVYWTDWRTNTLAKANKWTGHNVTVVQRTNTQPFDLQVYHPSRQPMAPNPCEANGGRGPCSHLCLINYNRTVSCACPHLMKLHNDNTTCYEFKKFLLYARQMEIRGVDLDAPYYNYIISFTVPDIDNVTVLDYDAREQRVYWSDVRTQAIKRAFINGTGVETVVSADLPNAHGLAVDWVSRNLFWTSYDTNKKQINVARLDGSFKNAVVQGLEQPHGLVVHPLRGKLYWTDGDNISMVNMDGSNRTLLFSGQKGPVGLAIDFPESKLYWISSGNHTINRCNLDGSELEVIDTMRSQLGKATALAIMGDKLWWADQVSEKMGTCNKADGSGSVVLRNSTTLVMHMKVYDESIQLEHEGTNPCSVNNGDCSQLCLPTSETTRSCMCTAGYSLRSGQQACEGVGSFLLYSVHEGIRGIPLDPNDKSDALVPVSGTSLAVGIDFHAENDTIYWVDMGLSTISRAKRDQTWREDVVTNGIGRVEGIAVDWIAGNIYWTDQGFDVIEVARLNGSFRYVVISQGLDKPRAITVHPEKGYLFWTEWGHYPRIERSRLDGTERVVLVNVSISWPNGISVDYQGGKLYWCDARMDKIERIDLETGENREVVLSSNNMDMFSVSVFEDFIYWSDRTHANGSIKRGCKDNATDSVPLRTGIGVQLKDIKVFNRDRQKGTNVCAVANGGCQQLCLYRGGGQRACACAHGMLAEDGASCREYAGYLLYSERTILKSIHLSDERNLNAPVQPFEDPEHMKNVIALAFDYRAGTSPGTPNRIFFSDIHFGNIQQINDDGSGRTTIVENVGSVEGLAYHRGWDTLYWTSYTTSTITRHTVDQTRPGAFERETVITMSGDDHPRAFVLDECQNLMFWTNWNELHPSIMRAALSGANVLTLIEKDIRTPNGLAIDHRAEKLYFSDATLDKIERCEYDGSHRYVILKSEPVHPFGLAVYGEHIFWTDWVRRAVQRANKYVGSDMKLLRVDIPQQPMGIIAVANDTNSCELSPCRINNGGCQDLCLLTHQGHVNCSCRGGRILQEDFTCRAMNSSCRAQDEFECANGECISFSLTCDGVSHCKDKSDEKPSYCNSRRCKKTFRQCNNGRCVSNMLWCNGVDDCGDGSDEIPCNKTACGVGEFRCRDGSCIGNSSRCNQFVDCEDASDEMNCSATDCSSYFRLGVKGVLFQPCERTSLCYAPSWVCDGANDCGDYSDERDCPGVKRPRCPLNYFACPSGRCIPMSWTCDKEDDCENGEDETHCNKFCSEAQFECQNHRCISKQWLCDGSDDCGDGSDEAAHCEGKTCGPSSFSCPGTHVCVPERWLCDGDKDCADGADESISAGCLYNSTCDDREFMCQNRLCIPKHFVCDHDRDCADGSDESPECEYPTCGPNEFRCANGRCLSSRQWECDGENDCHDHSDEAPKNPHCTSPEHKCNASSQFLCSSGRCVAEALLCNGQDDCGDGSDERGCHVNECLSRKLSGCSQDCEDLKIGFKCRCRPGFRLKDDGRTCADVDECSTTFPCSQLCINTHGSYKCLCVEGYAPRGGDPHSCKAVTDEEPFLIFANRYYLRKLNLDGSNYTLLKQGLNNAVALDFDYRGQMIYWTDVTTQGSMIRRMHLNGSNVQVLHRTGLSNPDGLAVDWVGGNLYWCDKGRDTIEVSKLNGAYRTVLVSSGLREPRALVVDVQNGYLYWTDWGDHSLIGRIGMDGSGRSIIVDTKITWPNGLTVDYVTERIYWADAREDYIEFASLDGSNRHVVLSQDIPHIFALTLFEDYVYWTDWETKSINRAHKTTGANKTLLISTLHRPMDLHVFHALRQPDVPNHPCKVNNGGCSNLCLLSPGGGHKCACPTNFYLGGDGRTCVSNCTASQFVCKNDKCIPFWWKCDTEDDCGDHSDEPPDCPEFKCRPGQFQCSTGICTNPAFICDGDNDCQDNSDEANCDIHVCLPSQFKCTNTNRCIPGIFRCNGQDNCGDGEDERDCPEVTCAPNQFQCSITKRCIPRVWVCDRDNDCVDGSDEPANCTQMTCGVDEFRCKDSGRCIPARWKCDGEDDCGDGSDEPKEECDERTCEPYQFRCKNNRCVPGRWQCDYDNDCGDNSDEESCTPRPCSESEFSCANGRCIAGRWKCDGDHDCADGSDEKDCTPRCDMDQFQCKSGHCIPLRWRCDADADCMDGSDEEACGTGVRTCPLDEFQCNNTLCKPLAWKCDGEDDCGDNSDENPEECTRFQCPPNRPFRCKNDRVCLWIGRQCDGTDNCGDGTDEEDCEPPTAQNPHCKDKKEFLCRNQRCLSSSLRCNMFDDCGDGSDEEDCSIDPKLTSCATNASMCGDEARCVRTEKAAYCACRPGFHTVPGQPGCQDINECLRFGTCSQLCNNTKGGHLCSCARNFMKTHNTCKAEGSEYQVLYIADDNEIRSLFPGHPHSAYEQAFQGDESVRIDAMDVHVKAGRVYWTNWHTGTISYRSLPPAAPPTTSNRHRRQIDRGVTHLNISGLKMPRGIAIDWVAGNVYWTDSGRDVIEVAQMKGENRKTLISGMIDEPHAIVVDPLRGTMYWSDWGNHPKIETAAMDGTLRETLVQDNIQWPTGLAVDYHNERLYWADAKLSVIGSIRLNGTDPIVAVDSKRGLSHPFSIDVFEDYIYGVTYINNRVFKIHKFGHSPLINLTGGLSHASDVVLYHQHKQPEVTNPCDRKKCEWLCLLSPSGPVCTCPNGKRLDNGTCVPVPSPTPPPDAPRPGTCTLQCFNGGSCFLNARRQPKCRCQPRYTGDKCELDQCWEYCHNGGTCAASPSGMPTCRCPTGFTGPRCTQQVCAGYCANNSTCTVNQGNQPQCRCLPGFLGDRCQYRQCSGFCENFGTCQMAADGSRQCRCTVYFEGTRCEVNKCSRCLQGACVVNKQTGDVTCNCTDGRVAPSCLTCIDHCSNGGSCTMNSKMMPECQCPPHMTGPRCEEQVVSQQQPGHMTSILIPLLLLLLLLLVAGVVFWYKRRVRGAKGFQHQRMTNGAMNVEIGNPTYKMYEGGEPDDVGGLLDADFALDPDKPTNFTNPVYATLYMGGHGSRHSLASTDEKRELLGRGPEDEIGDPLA

In turn, “P. falciparum CS protein CS27IVC-His6 (AA 27-123[NANPNVDP]3[NANP]21300-411) (from UniProt P05691 27-123) (ligand)” displayed an elevation of the cAMP level in Kupffer cells of 3 fold.

Values taken from patent US20070041992A1.
